Measured values taken from article PMC6310132.

What was measured:
Test in all cases: SPR
[1] = molecular target: trout saccular hair cell snapin, pRSET-A fusion protein (trout)
[2] = molecular target: N-ethylmaleimide-sensitive factor (NSF), pRSET-A fusion protein (mouse) (UniProt P46460)
[3] = molecular target: rat organ of Corti AP2mu1, pRSET-A fusion protein (SPR and Figure 7A,B) (rat) (UniProt P84092)
[4] = molecular target: trout saccular hair cell dopamine D1A4 carboxy terminus, pRSET-A fusion protein (trout)
[5] = molecular target: trout saccular hair cell otoferlin C2F domain, pRSET-A fusion protein (trout)

N-ethylmaleimide-sensitive factor (NSF), pRSET-A fusion protein (mouse), sequence (P46460 whole entry, the tested form may be a part): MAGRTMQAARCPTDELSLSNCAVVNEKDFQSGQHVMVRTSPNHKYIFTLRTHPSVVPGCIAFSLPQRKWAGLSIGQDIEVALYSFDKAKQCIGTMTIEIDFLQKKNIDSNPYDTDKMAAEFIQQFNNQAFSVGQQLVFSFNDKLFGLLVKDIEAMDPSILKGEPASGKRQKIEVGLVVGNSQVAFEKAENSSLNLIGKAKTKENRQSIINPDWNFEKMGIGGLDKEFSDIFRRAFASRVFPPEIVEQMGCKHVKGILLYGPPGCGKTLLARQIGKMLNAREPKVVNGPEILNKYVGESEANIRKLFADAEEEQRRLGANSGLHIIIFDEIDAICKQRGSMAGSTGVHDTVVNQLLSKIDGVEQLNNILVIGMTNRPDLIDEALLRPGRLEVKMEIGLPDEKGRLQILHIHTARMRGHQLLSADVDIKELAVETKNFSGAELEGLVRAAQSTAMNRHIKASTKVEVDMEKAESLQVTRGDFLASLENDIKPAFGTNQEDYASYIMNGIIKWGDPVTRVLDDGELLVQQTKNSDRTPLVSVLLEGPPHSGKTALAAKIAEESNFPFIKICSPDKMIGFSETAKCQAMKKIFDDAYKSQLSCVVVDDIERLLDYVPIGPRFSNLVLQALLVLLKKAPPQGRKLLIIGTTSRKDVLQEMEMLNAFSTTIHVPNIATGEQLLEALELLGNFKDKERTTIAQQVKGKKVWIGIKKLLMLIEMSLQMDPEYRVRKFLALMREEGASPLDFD

“trout saccular hair cell dopamine D1A4 carboxy terminus, pRSET-A fusion protein (domain or fragment)” gave a Kd [1] of 0.0146 µM and a koff [1] of 0.00174 s⁻¹.
In the case of “rat organ of Corti otoferlin C2F domain, pRSET-A fusion protein used for SPR (domain or fragment)”, the Kd [2] is reported as 0.00229 µM, the koff [2] is reported as 0.00073 s⁻¹ and the Kd [3] is reported as 0.129 µM. For the same substance, the koff [3] was 0.00273 s⁻¹ and the kon [3] was 21200 M⁻¹ s⁻¹.
Work on “trout saccular hair cell snapin, pRSET-A fusion protein (domain or fragment)” yielded a Kd [4] of 0.0269 µM, a koff [4] of 0.00784 s⁻¹ and a Kd [5] of 0.0234 µM. The koff [5] was 0.00348 s⁻¹.
“trout saccular hair cell otoferlin C2F domain, pRSET-A fusion protein (domain or fragment)” was tested, and the Kd [1] was 0.013 µM and the koff [1] was 0.00407 s⁻¹.
